Source: patent US20170266254A1 (AILERON THERAPEUTICS, published 2017)
Bridges are numbered along the chain shown (N, C = ends). [ ]: non-standard residue; d: D form. S5 = C=CCCC[C@](C)(N)C(=O)O; Nle = CCCC[C@H](N)C(=O)O

T1: C-terminally 6x Histidine-tagged Beta-Catenin (aa 134-668, 59 KD) (UniProt P35222 134-668)
T1 construct: range 134-668; Armadillo repeat region
T1 sequence: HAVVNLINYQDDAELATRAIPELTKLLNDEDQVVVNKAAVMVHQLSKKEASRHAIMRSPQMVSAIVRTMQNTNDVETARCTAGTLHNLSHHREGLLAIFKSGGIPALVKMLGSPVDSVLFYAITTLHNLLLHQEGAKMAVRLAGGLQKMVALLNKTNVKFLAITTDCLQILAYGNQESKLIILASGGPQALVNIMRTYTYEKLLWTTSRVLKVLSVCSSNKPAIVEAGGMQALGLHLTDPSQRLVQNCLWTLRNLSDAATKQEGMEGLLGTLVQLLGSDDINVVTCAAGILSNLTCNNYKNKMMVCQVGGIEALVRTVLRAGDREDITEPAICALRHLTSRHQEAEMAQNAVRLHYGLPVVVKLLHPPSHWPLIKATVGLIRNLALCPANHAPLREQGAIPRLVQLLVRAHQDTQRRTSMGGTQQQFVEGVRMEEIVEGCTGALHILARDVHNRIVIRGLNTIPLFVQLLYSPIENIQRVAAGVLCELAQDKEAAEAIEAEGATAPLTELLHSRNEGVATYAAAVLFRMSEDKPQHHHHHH


Biological target: T1, C-terminally 6x Histidine-tagged …
Test: competitive fluorescence polarization, FAM-labelled linear probe as competitor, His-tagged beta-catenin 134-668
Protocol: The following experiments are performed at room temperature unless otherwise noted. First, an assay buffer is prepared composed of 25 mM Tris-Hcl pH 7.5, 200 mM Sodium Chloride, and 5 mM CHAPS. Next, 1M DTT is added to assay buffer to a final concentration of 2 mM. […] Forty μl of this protein stock is added to all but six wells of a 96 well plate (which will serve as the free peptide and Blank). Test competitor peptides are diluted from 1 mM DMSO stocks to 2× working stocks in assay buffer. Further dilutions are made in assay buffer-DMSO as to maintain a constant DMSO concentration in all wells. The dilution is carried out such that the peptides have a working concentration range of 40 μM-0.7 μM (2×). As a benchmark, a linear, non-crosslinked peptide competitor is prepared as above but with a working concentration range of 13-0.7 μM. Fifty μl of the competitor 2× stocks are added to the 40 μl of protein solution previously transferred into the assay 96 well plate. Next, a 10× stock of the fluorescent probe is prepared. The probe is identical to the linear benchmark peptide except for the n-terminal conjugation of a FAM flourophore with Beta-Alanine spacer. A 1 mM DMSO stock of the probe is serially diluted to a final concentration of 25 nM (10×) and 10 μl of this stock is added to all wells except for those that will serve as the blank. The assay plate is stored in the dark and the reaction is allowed to run at room temperature for three hours. The reaction is then read on a Biotek Synergy 2 with the following settings: 100 ms delay, 40 measurements per well, with excitation filters of […], and emission filters of […]. Data is then analyzed in Graphpad Prism.

| IC50 [µM] | Binder |
| --- | --- |
| ≥ 100 | Ac-RDLANVK[S5]S[Nle]V[S5]ES-NH2 (staple 8-12; SMILES CCCC[C@@H]1NC(=O)[C@H](CO)NC(=O)[C@@](C)(NC(=O)[C@H](CCCCN)NC(=O)[C@@H](NC(=O)[C@H](CC(N)=O)NC(=O)[C@H](C)NC(=O)[C@H](CC(C)C)NC(=O)[C@H](CC(=O)O)NC(=O)[C@H](CCCNC(=N)N)NC(C)=O)C(C)C)CCCC=CCCC[C@@](C)(C(=O)N[C@@H](CCC(=O)O)C(=O)N[C@@H](CO)C(N)=O)NC(=O)[C@H](C(C)C)NC1=O, also called Ac-RDLANVK$SNleV$ES-NH2) [SP34] |
| ≥ 100 | Ac-RDLANVI[S5]SLV[S5]ES-NH2 (staple 8-12; SMILES CC[C@H](C)[C@H](NC(=O)[C@@H](NC(=O)[C@H](CC(N)=O)NC(=O)[C@H](C)NC(=O)[C@H](CC(C)C)NC(=O)[C@H](CC(=O)O)NC(=O)[C@H](CCCNC(=N)N)NC(C)=O)C(C)C)C(=O)N[C@@]1(C)CCCC=CCCC[C@@](C)(C(=O)N[C@@H](CCC(=O)O)C(=O)N[C@@H](CO)C(N)=O)NC(=O)[C@H](C(C)C)NC(=O)[C@H](CC(C)C)NC(=O)[C@H](CO)NC1=O, also called Ac-RDLANVI$SLV$ES-NH2) [SP32] |
| ≥ 100 | Ac-RDLADVK[S5]SLV[S5]ES-NH2 (staple 8-12; SMILES CC(=O)N[C@@H](CCCNC(=N)N)C(=O)N[C@@H](CC(=O)O)C(=O)N[C@@H](CC(C)C)C(=O)N[C@@H](C)C(=O)N[C@@H](CC(=O)O)C(=O)N[C@H](C(=O)N[C@@H](CCCCN)C(=O)N[C@@]1(C)CCCC=CCCC[C@@](C)(C(=O)N[C@@H](CCC(=O)O)C(=O)N[C@@H](CO)C(N)=O)NC(=O)[C@H](C(C)C)NC(=O)[C@H](CC(C)C)NC(=O)[C@H](CO)NC1=O)C(C)C, also called Ac-RDLADVK$SLV$ES-NH2) [SP2] |
| ≥ 100 | Ac-RDL[S5]NVK[S5]SLVNES-NH2 (staple 4-8; SMILES CC(=O)N[C@@H](CCCNC(=N)N)C(=O)N[C@@H](CC(=O)O)C(=O)N[C@@H](CC(C)C)C(=O)N[C@@]1(C)CCCC=CCCC[C@@](C)(C(=O)N[C@@H](CO)C(=O)N[C@@H](CC(C)C)C(=O)N[C@H](C(=O)N[C@@H](CC(N)=O)C(=O)N[C@@H](CCC(=O)O)C(=O)N[C@@H](CO)C(N)=O)C(C)C)NC(=O)[C@H](CCCCN)NC(=O)[C@H](C(C)C)NC(=O)[C@H](CC(N)=O)NC1=O, also called Ac-RDL$NVK$SLVNES-NH2) [SP9] |
| ≥ 100 | Ac-RDLANVV[S5]SLV[S5]ES-NH2 (staple 8-12; SMILES CC(=O)N[C@@H](CCCNC(=N)N)C(=O)N[C@@H](CC(=O)O)C(=O)N[C@@H](CC(C)C)C(=O)N[C@@H](C)C(=O)N[C@@H](CC(N)=O)C(=O)N[C@H](C(=O)N[C@H](C(=O)N[C@@]1(C)CCCC=CCCC[C@@](C)(C(=O)N[C@@H](CCC(=O)O)C(=O)N[C@@H](CO)C(N)=O)NC(=O)[C@H](C(C)C)NC(=O)[C@H](CC(C)C)NC(=O)[C@H](CO)NC1=O)C(C)C)C(C)C, also called Ac-RDLANVV$SLV$ES-NH2) [SP33] |
| ≥ 100 | Ac-RGLANVK[S5]SLV[S5]ES-NH2 (staple 8-12; SMILES CC(=O)N[C@@H](CCCNC(=N)N)C(=O)NCC(=O)N[C@@H](CC(C)C)C(=O)N[C@@H](C)C(=O)N[C@@H](CC(N)=O)C(=O)N[C@H](C(=O)N[C@@H](CCCCN)C(=O)N[C@@]1(C)CCCC=CCCC[C@@](C)(C(=O)N[C@@H](CCC(=O)O)C(=O)N[C@@H](CO)C(N)=O)NC(=O)[C@H](C(C)C)NC(=O)[C@H](CC(C)C)NC(=O)[C@H](CO)NC1=O)C(C)C, also called Ac-RGLANVK$SLV$ES-NH2) [SP35] |
| ≥ 100 | Ac-RNLADVK[S5]SLV[S5]ES-NH2 (staple 8-12; SMILES CC(=O)N[C@@H](CCCNC(=N)N)C(=O)N[C@@H](CC(N)=O)C(=O)N[C@@H](CC(C)C)C(=O)N[C@@H](C)C(=O)N[C@@H](CC(=O)O)C(=O)N[C@H](C(=O)N[C@@H](CCCCN)C(=O)N[C@@]1(C)CCCC=CCCC[C@@](C)(C(=O)N[C@@H](CCC(=O)O)C(=O)N[C@@H](CO)C(N)=O)NC(=O)[C@H](C(C)C)NC(=O)[C@H](CC(C)C)NC(=O)[C@H](CO)NC1=O)C(C)C, also called Ac-RNLADVK$SLV$ES-NH2) [SP4] |
| ≥ 100 | Ac-SAERDL[S5]DVK[S5]SLVNESEKR-NH2 (staple 7-11; SMILES CC(=O)N[C@@H](CO)C(=O)N[C@@H](C)C(=O)N[C@@H](CCC(=O)O)C(=O)N[C@@H](CCCNC(=N)N)C(=O)N[C@@H](CC(=O)O)C(=O)N[C@@H](CC(C)C)C(=O)N[C@@]1(C)CCCC=CCCC[C@@](C)(C(=O)N[C@@H](CO)C(=O)N[C@@H](CC(C)C)C(=O)N[C@H](C(=O)N[C@@H](CC(N)=O)C(=O)N[C@@H](CCC(=O)O)C(=O)N[C@@H](CO)C(=O)N[C@@H](CCC(=O)O)C(=O)N[C@@H](CCCCN)C(=O)N[C@@H](CCCNC(=N)N)C(N)=O)C(C)C)NC(=O)[C@H](CCCCN)NC(=O)[C@H](C(C)C)NC(=O)[C@H](CC(=O)O)NC1=O) [SP10] |
| 85 | Ac-SAERDLADVK[S5]SLV[S5]ESEKR-NH2 (staple 11-15; SMILES CC(=O)N[C@@H](CO)C(=O)N[C@@H](C)C(=O)N[C@@H](CCC(=O)O)C(=O)N[C@@H](CCCNC(=N)N)C(=O)N[C@@H](CC(=O)O)C(=O)N[C@@H](CC(C)C)C(=O)N[C@@H](C)C(=O)N[C@@H](CC(=O)O)C(=O)N[C@H](C(=O)N[C@@H](CCCCN)C(=O)N[C@@]1(C)CCCC=CCCC[C@@](C)(C(=O)N[C@@H](CCC(=O)O)C(=O)N[C@@H](CO)C(=O)N[C@@H](CCC(=O)O)C(=O)N[C@@H](CCCCN)C(=O)N[C@@H](CCCNC(=N)N)C(N)=O)NC(=O)[C@H](C(C)C)NC(=O)[C@H](CC(C)C)NC(=O)[C@H](CO)NC1=O)C(C)C) [SP12] |
| ≥ 100 | Ac-SA[S5]RDL[S5]DVKSSLVNESEKR-NH2 (staple 3-7; SMILES CC(=O)N[C@@H](CO)C(=O)N[C@@H](C)C(=O)N[C@@]1(C)CCCC=CCCC[C@@](C)(C(=O)N[C@@H](CC(=O)O)C(=O)N[C@H](C(=O)N[C@@H](CCCCN)C(=O)N[C@@H](CO)C(=O)N[C@@H](CO)C(=O)N[C@@H](CC(C)C)C(=O)N[C@H](C(=O)N[C@@H](CC(N)=O)C(=O)N[C@@H](CCC(=O)O)C(=O)N[C@@H](CO)C(=O)N[C@@H](CCC(=O)O)C(=O)N[C@@H](CCCCN)C(=O)N[C@@H](CCCNC(=N)N)C(N)=O)C(C)C)C(C)C)NC(=O)[C@H](CC(C)C)NC(=O)[C@H](CC(=O)O)NC(=O)[C@H](CCCNC(=N)N)NC1=O) [SP22] |
| ≥ 100 | Ac-SAERDLA[S5]VKS[S5]LVNESEKR-NH2 (staple 8-12; SMILES CC(=O)N[C@@H](CO)C(=O)N[C@@H](C)C(=O)N[C@@H](CCC(=O)O)C(=O)N[C@@H](CCCNC(=N)N)C(=O)N[C@@H](CC(=O)O)C(=O)N[C@@H](CC(C)C)C(=O)N[C@@H](C)C(=O)N[C@@]1(C)CCCC=CCCC[C@@](C)(C(=O)N[C@@H](CC(C)C)C(=O)N[C@H](C(=O)N[C@@H](CC(N)=O)C(=O)N[C@@H](CCC(=O)O)C(=O)N[C@@H](CO)C(=O)N[C@@H](CCC(=O)O)C(=O)N[C@@H](CCCCN)C(=O)N[C@@H](CCCNC(=N)N)C(N)=O)C(C)C)NC(=O)[C@H](CO)NC(=O)[C@H](CCCCN)NC(=O)[C@H](C(C)C)NC1=O) [SP11] |
